Measurements as given in US20230399384A1.
Read-outs that look alike come from different tables or passages of the source.

B1: CoV2-16 (antibody, V domains shown)
VH: QVQLHQWGAGLLKPSETLSRTCAVYGGSFSGYYWTWIRQAPGKGLEWIGEINHGGSTRYNPSLESRVSISVDTSKKQFSLELRSVTAADTAIYYCARGYDTNWYGDGYNWFDPWDRGTLVTVSS
VL: QAVVTQPPSVSGTPGQRVTISCSGSSSSIGSNTVHWYQHLPGTAPKLLMYNNNERPSGVPARFSGSKSGTSASLVITGLQADDEAEYYCQSYDTGLSGHVFGSGTELTVL
B2: CoV2-09 (antibody, V domains shown)
VH: B1 VH
VL: QSALTQDPSVSVALGQTVRITCQGDSLRGSFASWYRQKPGQAPVLVIFGINNRPSGVPDRFSGSSSGNTASLTITGAQAEDEADYYCNSRESNSNRILFGGGTKVTVL

Columns and labels:
Settings in all cases: remark: other sources report otherwise
[1] = target: T1, sCoV2-RBD (Fc-tagged RBD of SARS-CoV-2 S protein) (SARS-CoV-2; human), P0DTC2; test: BLI (Octet) blocking of ACE2 binding to captured sCoV2-RBD
[2] = target: T1, sCoV2-RBD (Fc-tagged RBD of SARS-CoV-2 …); test: ELISA titration on coated sCoV2-RBD
[3] = target: trimeric prefusion S protein of SARS-CoV-2 (SARS-CoV-2), P0DTC2
[4] = target: T1, sCoV2-RBD (Fc-tagged RBD of SARS-CoV-2 …)

Binder	IC50 [1] [µg/mL]	EC50 [2] [nM]	Kd [3] [nM]	EC50 [4] [nM]
B1	6.9	7.77	5.35	7.77
B2	3.54	–	0.94	–
